One substance from US20020088015A1 can be followed below.

This assay addresses GAL4-WT1 (WT1 fused to the DNA-binding domain of GAL4) (UniProt P04386). Kind of assay: cell-based or functional assay.

“par-4 expressed from pCMV-par-4 in transfected cells” came in with a WT1-mediated transcriptional repression of pGAL4TKCAT (CAT assay) of 3 fold.
